# B1: mRNA-splicing (parent)
# chain: AGUUGCUGCUGGGAGCUCCAGCACAGUGAAAUGGACAGAAGGGCAGAGCAA
# Variants of: B1
# Assay: exon inclusion enrichment index; higher = more inclusion; WT1 exon 5 minigene, HEK293
row,Variant,exon inclusion enrichment index
1,AGUUAUAUAUGGGAGCUCCAGCACAGUGAAAUGGACAGAAGGGCAGAACAA [G5A C6U U7A G8U C9A G48A],0.185
2,AGUUAUAUAUGGGAGCUCCAGCACAGUGAAAUGGACAGAAGGGCAGAUCAA [G5A C6U U7A G8U C9A G48U],0.114
3,AGUUAUAUAUGGGAGCUCCAGCACAGUGAAAUGGACAGAAGGGCAGACCAA [G5A C6U U7A G8U C9A G48C],0.13
4,AGUUAUAUAUGGGAGCUCCAGCACAGUGAAAUGGACAGAAGAACAGAGCAA [G5A C6U U7A G8U C9A G42A G43A],1.16
5,AGUUAUAUAUGGGAGCUCCAGCACAGUGAAAUGGACAGAAGAUCAGAGCAA [G5A C6U U7A G8U C9A G42A G43U],1.03
6,AGUUAUAUAUGGGAGCUCCAGCACAGUGAAAUGGACAGAAGACCAGAGCAA [G5A C6U U7A G8U C9A G42A G43C],1.53
7,AGUUAUAUAUGGGAGCUCCAGCACAGUGAAAUGGACAGAAGGGCACAGCAA [G5A C6U U7A G8U C9A G46C],0.0876
8,AGUUAUAUAUGGGAGCUCCAGCACAGUGAAAUGGACAGAAGGGCAAAGCAA [G5A C6U U7A G8U C9A G46A],0.0879
9,AGUUAUAUAUGGGAGCUCCAGCACAGUGAAAUGGACAGAAGGGCAUAGCAA [G5A C6U U7A G8U C9A G46U],0.0405
10,AGUUAUAUAACGGAGCUCCAGCACAGUGAAAUGGACAGAAGGGCAGAGCAA [G5A C6U U7A G8U C9A U10A G11C],0.176
11,AGUUAUAUAAAGGAGCUCCAGCACAGUGAAAUGGACAGAAGGGCAGAGCAA [G5A C6U U7A G8U C9A U10A G11A],0.0538
12,AGUUAUAUAAUGGAGCUCCAGCACAGUGAAAUGGACAGAAGGGCAGAGCAA [G5A C6U U7A G8U C9A U10A G11U],0.0948
13,AGUUAUCGAUGGGAGCUCCAGCACAGUGAAAUGGACAGAAGGGCAGAGCAA [G5A C6U U7C C9A],1.32
14,AGUUAUAUAUGGGAGCUCCAGCACAGCAAAAUGGACAGAAGGGCAGAGCAA [G5A C6U U7A G8U C9A U27C G28A],0.0919
15,AGUUAUAUAUGGGAGCUCCAGCACAGCCAAAUGGACAGAAGGGCAGAGCAA [G5A C6U U7A G8U C9A U27C G28C],0.1
16,AGUUAUAUAUGGGAGCUCCAGCACAGCUAAAUGGACAGAAGGGCAGAGCAA [G5A C6U U7A G8U C9A U27C G28U],0.0508
17,AGUUAUAUGCGGGAGCUCCAGCACAGUGAAAUGGACAGAAGGGCAGAGCAA [G5A C6U U7A G8U C9G U10C],0.339
18,AGUUAUAUGGGGGAGCUCCAGCACAGUGAAAUGGACAGAAGGGCAGAGCAA [G5A C6U U7A G8U C9G U10G],0.0235
19,AGUUAUAUGAGGGAGCUCCAGCACAGUGAAAUGGACAGAAGGGCAGAGCAA [G5A C6U U7A G8U C9G U10A],0.0375
20,AGUUAUAUGUGGGAGCUCCAGCACAGUGAAAUGGACAGAAGGGCAGAGCAA [G5A C6U U7A G8U C9G],0.0579
21,AGUUAUAUUUGGGAGCUCCAGCACAGUGAAAUGGACAGAAGGGCAGAGCAA [G5A C6U U7A G8U C9U],0.0721
22,AGUUAUAUAAGGGAGCUCCAGCACAGUGAAAUGGACAGAAGGGCAGAGCAA [G5A C6U U7A G8U C9A U10A],0.0162
23,AGUUAUAUACGGGAGCUCCAGCACAGUGAAAUGGACAGAAGGGCAGAGCAA [G5A C6U U7A G8U C9A U10C],0.4
24,AGUUAUAUAGGGGAGCUCCAGCACAGUGAAAUGGACAGAAGGGCAGAGCAA [G5A C6U U7A G8U C9A U10G],0.00356
25,AGUUAUAUAUGGGAGCUCCAGCACAGGAAAAUGGACAGAAGGGCAGAGCAA [G5A C6U U7A G8U C9A U27G G28A],0.12
26,AGUUAUAUAUGGGAGCUCCAGCACAGGUAAAUGGACAGAAGGGCAGAGCAA [G5A C6U U7A G8U C9A U27G G28U],0.00125

row,Variant,exon inclusion enrichment index
1,AGUUAUAUAUGGGAGCUCCAGCACAGGCAAAUGGACAGAAGGGCAGAGCAA [G5A C6U U7A G8U C9A U27G G28C],0.0308
2,AGUUAUAUAUGGGAGCUCCAGCACAGUGAAAUGGACAGAAGCUCAGAGCAA [G5A C6U U7A G8U C9A G42C G43U],0.352
3,AGUUAUAUAUGGGAGCUCCAGCACAGUGAAAUGGACAGAAGCACAGAGCAA [G5A C6U U7A G8U C9A G42C G43A],0.295
4,AGUUAUAUAUGGGAGCUCCAGCACAGUGAAAUGGACAGAAGCCCAGAGCAA [G5A C6U U7A G8U C9A G42C G43C],0.451
5,AGUUAUAUAUGGGAGCUCCAGCACAGUGAAAUGGACAGAAGGGCAUGGCAA [G5A C6U U7A G8U C9A G46U A47G],0.0512
6,AGUUAUAUAUGGGAGCUCCAGCACAGUGAAAUGGACAGAAGGGCAUUGCAA [G5A C6U U7A G8U C9A G46U A47U],0.0891
7,AGUUAUAUAUGGGAGCUCCAGCACAGUGAAAUGGACAGAAGGGCAUCGCAA [G5A C6U U7A G8U C9A G46U A47C],0.376
8,AGUUAUAUACAGGAGCUCCAGCACAGUGAAAUGGACAGAAGGGCAGAGCAA [G5A C6U U7A G8U C9A U10C G11A],0.0351
9,AGUUAUAUACCGGAGCUCCAGCACAGUGAAAUGGACAGAAGGGCAGAGCAA [G5A C6U U7A G8U C9A U10C G11C],0.845
10,AGUUAUAUACUGGAGCUCCAGCACAGUGAAAUGGACAGAAGGGCAGAGCAA [G5A C6U U7A G8U C9A U10C G11U],0.148
11,AGUUAUAUUCGGGAGCUCCAGCACAGUGAAAUGGACAGAAGGGCAGAGCAA [G5A C6U U7A G8U C9U U10C],0.453
12,AGUUAUAUUGGGGAGCUCCAGCACAGUGAAAUGGACAGAAGGGCAGAGCAA [G5A C6U U7A G8U C9U U10G],0.0345
13,AGUUAUAUUAGGGAGCUCCAGCACAGUGAAAUGGACAGAAGGGCAGAGCAA [G5A C6U U7A G8U C9U U10A],0.00135
14,AGUUAUAUAUGGGAGCCGCAGCACAGUGAAAUGGACAGAAGGGCAGAGCAA [G5A C6U U7A G8U C9A U17C C18G],0.0591
15,AGUUAUAUAUGGGAGCCACAGCACAGUGAAAUGGACAGAAGGGCAGAGCAA [G5A C6U U7A G8U C9A U17C C18A],0.0363
16,AGUUAUAUAUGGGAGCCUCAGCACAGUGAAAUGGACAGAAGGGCAGAGCAA [G5A C6U U7A G8U C9A U17C C18U],0.0327
17,AGUUAUAUAUGGGAGCGGCAGCACAGUGAAAUGGACAGAAGGGCAGAGCAA [G5A C6U U7A G8U C9A U17G C18G],0.0481
18,AGUUAUAUAUGGGAGCGACAGCACAGUGAAAUGGACAGAAGGGCAGAGCAA [G5A C6U U7A G8U C9A U17G C18A],0.0489
19,AGUUAUAUAUGGGAGCGUCAGCACAGUGAAAUGGACAGAAGGGCAGAGCAA [G5A C6U U7A G8U C9A U17G C18U],0.0294
20,AGUUAUAUAUGGGAGCUCCAGCACAGUGAAAUGGACAGAAGUUCAGAGCAA [G5A C6U U7A G8U C9A G42U G43U],0.23
21,AGUUAUAUAUGGGAGCUCCAGCACAGUGAAAUGGACAGAAGUCCAGAGCAA [G5A C6U U7A G8U C9A G42U G43C],0.0628
22,AGUUAUAUAUGGGAGCUCCAGCACAGUGAAAUGGACAGAAGUACAGAGCAA [G5A C6U U7A G8U C9A G42U G43A],0.282
23,AGUUAUAUAUGGGAGCUCCAGCACAGUGAAACCGACAGAAGGGCAGAGCAA [G5A C6U U7A G8U C9A U32C G33C],0.144
24,AGUUAUAUAUGGGAGCUCCAGCACAGUGAAACUGACAGAAGGGCAGAGCAA [G5A C6U U7A G8U C9A U32C G33U],0.0226
25,AGUUAUAUAUGGGAGCUCCAGCACAGUGAAACAGACAGAAGGGCAGAGCAA [G5A C6U U7A G8U C9A U32C G33A],0.0199

# Reference: the RNAGym collection of RNA variant scans (doi:10.1101/gr.219683.116)
